Measured values published in patent publication US10208121B2, “Anti-Axl antagonistic antibodies” (BERGEN TEKNOLOGIOVERFORING AS, priority 2014, dated 2019).

T1: human Tyro3 (rhTyro3/Dtk-Fc chimera) (Homo sapiens, UniProt Q06418)
T1 construct: Soluble recombinant antigens corresponding to the extracellular domains of members of the human TAM receptor family; purchased R&D Systems 859-DK
T1 sequence (Q06418 41-429 limits assumed): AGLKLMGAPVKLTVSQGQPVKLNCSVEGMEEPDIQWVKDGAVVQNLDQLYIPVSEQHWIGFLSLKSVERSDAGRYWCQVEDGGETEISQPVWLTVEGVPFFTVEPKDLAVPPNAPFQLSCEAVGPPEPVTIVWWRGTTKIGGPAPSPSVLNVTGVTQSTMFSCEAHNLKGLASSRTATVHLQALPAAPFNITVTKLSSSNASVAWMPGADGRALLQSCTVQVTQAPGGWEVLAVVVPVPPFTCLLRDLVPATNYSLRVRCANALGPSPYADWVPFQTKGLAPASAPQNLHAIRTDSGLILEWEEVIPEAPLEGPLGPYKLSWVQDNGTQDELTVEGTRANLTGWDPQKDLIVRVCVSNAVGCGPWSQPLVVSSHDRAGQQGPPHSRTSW


How the values were obtained:
[1] = molecular target: T2, human Axl (rhAxl-Fc chimera) (Homo sapiens, UniProt P30530); test: Biacore binding analysis on immobilized human Axl; details: 10 μg/mL, 25° C.
T2 construct: Soluble recombinant antigens corresponding to the extracellular domains of members of the human TAM receptor family; purchased R&D Systems 154-AL
Method: (§1) All binding experiments were performed using Biacore 3000 instrument (GE Healthcare) at 25° C. Soluble recombinant antigens corresponding to the extracellular domains of members of the human TAM receptor family, Axl (rhAxl-Fc chimera; R&D Systems, Cat. no. 154-AL), Mer (rhMer-Fc chimera; R&D Systems, Cat. no. 891-MR) and Tyro3 (rhTyro3/Dtk-Fc chimera; R&D Systems, Cat. no. 859-DK) were immobilized on the surface of CM5 sensor chip using amine coupling at the surface density of 393.0, 303.6 and 364.0 resonance units (RU), respectively. The Biacore run was performed in an automatic mode using Binding analysis wizard. Samples containing either MAb 10C9 or MAb 10G5 at concentration 10 μg/mL in HBS-EP buffer (GE Healthcare) were injected over the surfaces with immobilized antigens at flow rate of 30 μL/min for 3 min (association) followed by 5 min dissociation.
(§2) The binding experiments were performed using Biacore 3000 instrument (GE Healthcare) at 25° C. The soluble recombinant antigens corresponding to human Axl (rhAxl-Fc chimera; R&D Systems, Cat. no. 154-AL), mouse Axl (rmAxl-Fc chimera; R&D Systems, R&D Systems; Cat. no. 854-AX) and human Tyro3 (rhTyro3/Dtk-Fc chimera; R&D Systems, Cat. no. 859-DK) were immobilized on the surface of CM5 sensor chip using amine coupling at the surface density of 1,308.0, 2,115.9 and 1,429.0 RU, respectively. The Biacore runs were performed in an automatic mode using Binding analysis wizard.
(§3) The sample containing either MAb 10C9, MAb 10G5 or recombinant mouse (rm) Axl-ligand Gas6 (R&D Systems, Cat. no. 986-GS/CF) at concentration 10 μg/mL in HBS-EP buffer (GE Healthcare) was injected over the surfaces with immobilized antigens at flow rate of 30 μL/min for 3 min (association) followed by 5 min dissociation.
The sequence of Axl receptor from cynomolgus monkey (Macaca fascicularis; SEQ ID NO.43) was retrieved from WO2009062690A1. Based on the sequence, recombinant extracellular domain of cyno-Axl was generated by transient expression in CHO cells as a fusion protein with human Fc. The recombinant cyno-Axl-Fc was purified to homogeneity using Protein A-Sepharose (GE Healthcare). The binding experiments were performed using Biacore 3000 instrument (GE Healthcare) at 25° C. The soluble recombinant antigens corresponding to human Axl (rhAxl-Fc chimera; R&D Systems, Cat. no. 154-AL) and cyno-Axl were immobilized on the surface of CM5 sensor chip using amine coupling at the surface density of 775 and 880 RU, respectively. The Biacore runs were performed in an automatic mode using Binding analysis wizard.
The sample containing either MAb 10C9, MAb 10G5 or human Axl-specific MAb 5F11 (control) at concentration 10 μg/mL in HBS-EP buffer (GE Healthcare) was injected over the surfaces with immobilized antigens at flow rate of 30 μL/min for 3 min (association) followed by 5 min dissociation.
In addition, the Axl-binding properties of the chimeric antibodies c10C9 and c10G5 were tested using Biacore 3000 instrument (GE Healthcare) and a sensor chip CM5 coated with human Axl (rhAxl-Fc chimera; R&D Systems, Cat. no. 154-AL) at the surface density of 1,308.0 RU. The Biacore runs were performed in an automatic mode using Binding analysis wizard. The samples comprising either the chimeric antibodies c10C9 and c10G5 or their murine counterparts at concentration 10 μg/mL in HBS-EP buffer (GE Healthcare) were injected over the surfaces with immobilized antigens at flow rate of 30 μL/min for 3 min (association) followed by 5 min dissociation.

[2] = molecular target: T3, rhAxl-Fc chimera (recombinant human Axl) (Homo sapiens, UniProt P30530); test: Biacore surface plasmon resonance kinetic affinity determination on immobilized rhAxl-Fc; format: binding; details: chimeric antibodies, rhAxl immobilized on sensor chip, 25° C., 1:1 Langmuir binding model
T3 construct: Soluble recombinant antigens corresponding to the extracellular domains of members of the human TAM receptor family; purchased R&D Systems 154-AL
Method: Kinetic analysis of MAbs 10C9 and 10G5 interacting with rhAxl immobilized on the surface of the Biacore sensor chip. Overlay plots of sensograms for different antibody concentrations (1.3-666.7 nM for 10C9 and 0.3-166.7 nM for 10G5) are shown. The precise kinetic analysis was performed using BIA evaluation software and curve fitting according to 1:1 Langmuir binding model.
Kinetic analysis of chimeric antibodies c10C9 and c10G5 interacting with rhAxl immobilized on the surface of the Biacore sensor chip. Overlay plots of sensograms for different antibody concentrations (1.3-666.7 nM for c10C9 and 0.3-166.7 nM for c10G5) are shown. The precise kinetic analysis was performed using BIA evaluation software and curve fitting according to 1:1 Langmuir binding model.
Affinity determination of anti-Axl antibodies 10C9 and 10G5 was performed at 25° C. by surface plasmon resonance measurements using Biacore 3000 instrument (GE Healthcare). As a solid antigen-coated surface, a sensor chip CM5 with immobilized rhAxl-Fc chimera (R&D Systems, Cat. no. 154-AL) at density 190 RU was used.
For the kinetics measurements, different concentrations of anti-Axl antibodies (from 0.3 to 666.7 nM) in HBS-EP buffer (Biacore, Cat. no. BR-1001-88) were injected at flow rate of 30 μL/min with 3 min injection time followed by 5 min dissociation (buffer alone). After each cycle, the surface was regenerated by 30 sec injection of a regeneration solution (10 mM HCl, 1 M NaCl) at flow rate 50 μL/min.
The kinetic association (on-rate, kon) and dissociation (off-rate, koff) rates were calculated using BIAevaluation software and 1:1 Langmuir binding model. The equilibrium dissociation constant (KD) was calculated as the koff/kon ratio. The half-life (t1/2) of the formed antibody-antigen complexes was calculated as the ln 2/koff ratio.
Affinity determination of the chimeric anti-Axl antibodies c10C9 and c10G5 was performed at 25° C. by surface plasmon resonance measurements using Biacore 3000 instrument (GE Healthcare). As a solid antigen-coated surface, a sensor chip CM5 with immobilized rhAxl-Fc chimera (R&D Systems, Cat. no. 154-AL) at density 190 RU was used.
For the kinetics measurements, different concentrations of anti-Axl antibodies (from 0.3 to 333.3 nM) in HBS-EP buffer (Biacore, Cat. no. BR-1001-88) were injected at flow rate of 30 μL/min with 3 min injection time followed by 5 min dissociation (buffer alone). After each cycle, the surface was regenerated by 30 sec injection of a regeneration solution (10 mM HCl, 1 M NaCl) at flow rate 50 μL/min.

[3] = system: Axl-positive breast cancer cell line MDA-MB-231; test: Flow cytometry binding to Axl-positive MDA-MB-231 cells; format: cell-based, human; details: different antibody concentrations, MFI
Method: Different concentrations of mouse and chimeric antibodies were tested in flow cytometry for binding to triple-negative breast cancer cell line MDA-MB-231. The bound mouse and chimeric antibodies were detected with APC-conjugated donkey F(ab′)2 fragments specific for either mouse IgG (H+L), 1:500 dilution, or human IgG (H+L), 1:300 dilution, respectively (both from Jackson ImmunoResearch). The cell staining was measured using Accuri C6 flow cytometer (BD Biosciences). MFI, geometric mean fluorescence intensity.
The purified chimeric antibodies (>95% purity) were analysed for binding to Axl-positive breast cancer cell line MDA-MB-231 in flow cytometry. For comparison, the parental mouse MAbs 10C9 and 10G5 were used. For flow cytometry, the adherent cells in culture were washed with PBS, detached by treatment with trypsin (0.25%) for 1 min and hitting culture dish for full detachment. Trypsin was quenched by adding into the tissue flask the complete medium followed by washing the cells with PBS. During the washing steps, the cells were collected by centrifugation at 200 g for 5 min. The antibody was diluted for total concentration in PBS containing 0.02% bovine serum albumin (BSA). Cell staining was performed using 200 μL of cell suspension comprising 10^5 cells for 20 min at room temperature. The cell-bound antibodies were detected with APC-conjugated donkey anti-human or anti-mouse, respectively, IgG (H+L) F(ab′)2 fragments (Jackson ImmunoResearch). After two washing steps with PBS/0.02% BSA, the cells were resuspended in 200 μL and kept on ice before analysis on Accuri C6 flow cytometer (BD Biosciences).

[4] = molecular target: T1, human Tyro3 (rhTyro3/Dtk-Fc chimera); test: Biacore binding analysis on immobilized human Tyro3; details: 10 μg/mL, 25° C.
Method: as §1, §2, §3

[5] = molecular target: T4, mouse Axl (rmAxl-Fc chimera) (Mus musculus, UniProt Q00993); test: Biacore binding analysis on immobilized mouse Axl; details: 10 μg/mL, 25° C.
T4 construct: The soluble recombinant antigens corresponding to human Axl (rhAxl-Fc chimera; R&D Systems, Cat. no; 154-AL), mouse Axl (rmAxl-Fc chimera; purchased R&D Systems 854-AX
Method: as §2, §3

T4 sequence (Q00993 19-445 limits assumed, change not shown): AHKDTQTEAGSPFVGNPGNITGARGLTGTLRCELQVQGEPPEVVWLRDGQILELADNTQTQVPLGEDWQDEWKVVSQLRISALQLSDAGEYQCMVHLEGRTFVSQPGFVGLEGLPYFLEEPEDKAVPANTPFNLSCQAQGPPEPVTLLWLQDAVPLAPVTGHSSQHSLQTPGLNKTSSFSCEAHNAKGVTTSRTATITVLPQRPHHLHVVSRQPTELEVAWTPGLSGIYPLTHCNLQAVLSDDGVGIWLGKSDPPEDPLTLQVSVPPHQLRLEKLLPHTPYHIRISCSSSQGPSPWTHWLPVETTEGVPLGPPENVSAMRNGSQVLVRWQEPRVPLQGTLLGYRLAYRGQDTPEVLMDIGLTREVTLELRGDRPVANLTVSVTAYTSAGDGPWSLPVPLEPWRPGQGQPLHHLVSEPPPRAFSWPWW

Molecule	binding to human Axl [1]	Off-rate (koff; s^−1) [2]	On-rate (kon; M^−1s^−1) [2]	binding to MDA-MB-231 cells in flow cytometry [3]	binding to human Axl ([1]; listed as murine Gas 6)	binding to human Tyro3 [4]	binding to human Tyro3 ([4]; listed as murine Gas 6)	binding to mouse Axl [5]	binding to mouse Axl ([5]; listed as murine Gas 6)
c10C9: chimeric (mouse variable/human constant) IgG1 counterpart of antibody 10C9 (antibody, left off: a dimerising Fc or GST, chimeric (mouse variable/human constant) IgG1 counterpart of antibody 10C9) heavy: QVQLQQPGPELVKPGASVKISCKTSDYNFTRYYIHWVKQRPGQGLEWIGWIYPGTGDSKYNEKFKGRATLTADTSSSTAYMQLSSQTSEDSAVYFCARNGNYWYFDVWGAGTAVTVSS light: DIVMTQAAPSGPVTPGESVSISCRSSKSLLHSNGNTYLYWFLQRPGQSPQLLIYRMSNLASGVPDRFSGSGSGTAFTLRISRVEAEDVGIYYCMQHREYPFTFGGGTKLEIK	bind immobilized Axl with profiles very similar to the binding profiles of the corresponding mouse antibodies	0.000219 s⁻¹	2.16e+06 M⁻¹ s⁻¹	Dose-dependent binding	–	–	–	–	–
mouse Gas6: recombinant mouse (rm) Axl-ligand Gas6 (R&D Systems), used as a control (protein) DQCTPNPCDKKGTHICQDLMGNFFCVCTDGWGGRLCDKDVNECVQKNGGCSQVCHNKPGSFQCACHSGFSLASDGQTCQDIDECTDSDTCGDARCKNLPGSYSCLCDEGYTYSSKEKTCQDVDECQQDRCEQTCVNSPGSYTCHCDGRGGLKLSPDMDTCEDILPCVPFSMAKSVKSLYLGRMFSGTPVIRLRFKRLQPTRLLAEFDFRTFDPEGVLFFAGGRSDSTWIVLGLRAGRLELQLRYNGVGRITSSGPTINHGMWQTISVEELERNLVIKVNKDAVMKIAVAGELFQLERGLYHLNLTVGGIPFKESELVQPINPRLDGCMRSWNWLNGEDSAIQETVKANTKMQCFSVTERGSFFPGNGFATYRLNYTRTSLDVGTETTWEVKVVARIRPATDTGVLLALVGDDDVVPISVALVDYHSTKKLKKQLVVLAVEDVALALMEIKVCDSQEHTVTVSLREGEATLEVDGTKGQSEVSTAQLQERLDTLKTHLQGSVHTYVGGLPEVSVISAPVTAFYRGCMTLEVNGKILDLDTASYKHSDITSHSCPPVEHAT	strong binding	–	–	–	binds strongly	somewhat weaker binding	more weakly	strong binding	binds strongly
